The supplement of paper PMC12042874
± gives the uncertainty stated by the source.

Assay: amyloid nucleation score (Sup35N fusion, yeast selection) (log enrichment); library NNK1; higher = more nucleation; inactive = no reads after selection
Outline: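 Sup35N was fused to peptides of 20 random codons and expressed in psi-negative yeast, which were induced with 100 μM copper sulfate for 24 hours and then grown on medium lacking adenine and uracil for 7 days at 30°C. Plasmid inserts from input and output were sequenced on Illumina. The nucleation score is the DiMSum log enrichment of output over input reads, centred on the mode score of non-aggregating sequences. Sequences with under 100 input reads were left out, and random libraries had three technical output replicates.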

Row | Substance | amyloid nucleation score
1 | WKRSEINDVFVM | inactive
2 | IHHKD | -0.616 ± 0.24
3 | FLSVLNFVRIIEKEVGRNRN | 1.79 ± 0.15
4 | IYGIMLG | inactive
5 | FKGHRHY | 0.318 ± 0.55
6 | SHTCYRIVTAPDTLLVSLGV | 0.438 ± 0.36
7 | NASYVNIKYRNRGN | 4.53 ± 0.082
8 | SAFFYDSFYRMRLSLFIGYG | 0.63 ± 0.55
9 | IIFNEIIHMQFDNIGDV | 3.27 ± 0.17
10 | FLSIYDTIVDCWVALVLVRG | -0.723 ± 0.91
11 | SYLGTHRFTECILDRVCTLQ | 0.125 ± 1.4
12 | CCWSYR | 2.51 ± 0.13
13 | PLEKVFVGPSADASNEEHRL | -0.883 ± 1.1
14 | DVTAPRLQIGLKVKHMKPFF | 0.423 ± 0.42
15 | NNANCMCSNTCHVFWANHAR | 6.193 ± 0.061
16 | DVRLRRYEGGQSSVTSHHDN | 0.028 ± 0.53
17 | NLGTSYAWHDNGLFCIHCVS | 1.34 ± 0.84
18 | VVDSTFWEVIHRRWASAMLD | -0.657 ± 0.68
19 | VVGRGKLQCVLFRHDTAYRV | -0.058 ± 0.28
20 | WPPMQGLSLSSLSSINHPHT | 0.76 ± 1.1
21 | SELWPRVDYCLATYSINSYA | -0.234 ± 0.3
22 | MAKTFRLGGLDCHLNYVVWC | 0.113 ± 0.61
23 | PLRTLPEQRCW | -0.006 ± 0.29
24 | ISYRNLIRFCFSPYAKLWRF | 0.69 ± 0.52
25 | WVNGMYQGRNEYDEKI | -0.455 ± 0.56
26 | VFLSCHQSLRVFVACYWHWY | 0.672 ± 0.33

Row | Substance | amyloid nucleation score
27 | GVCVNVKLLNWFKSRGTSSR | 1.91 ± 0.38
28 | CDFAYRDWCHKMRYRYTRPC | 0.38 ± 0.39
29 | LHWWRFFVEVTLPCLGFLLS | -0.308 ± 0.76
30 | SSMVVVGRRNLSDWKEYYPM | -0.283 ± 0.45
31 | FELQEYCFD | 0.923 ± 0.5
32 | FNYHACSNFSFSPDQPSFHC | 0.553 ± 0.45
33 | SDVVFYFGDAGFRMLSEDSR | -0.326 ± 0.55
34 | LCRIKGHRFIQVDTGEAVWS | -0.629 ± 0.61
35 | SDGCYALIWFGREQ | -1.24 ± 1.1
36 | KIDGRPVHIPRFRYDNDNKV | -0.359 ± 0.47
37 | KSFACYNKDQ | 0.423 ± 0.99
38 | GGLSNSLSTAVQDW | -0.995 ± 0.61
39 | FYWHHWTNLAIIVEYILGEW | 0.571 ± 1.2
40 | PLTKVFV | 0.167 ± 0.82
41 | SGKLCWLCVNCVILGSCKSL | -0.442 ± 0.73
42 | VLLIRYYFMKFDLSL | 0.359 ± 0.47
43 | MLKILNSSFFDTIVYAYITC | 3.6 ± 0.081
44 | TNMRTWFSGSFTILKCTDFQ | 0.744 ± 0.74
45 | SYVFDKGFIVNVITRCRKKM | 1.44 ± 0.34
46 | FTIVLELFRNFSRSKVYEDV | -0.756 ± 2.4
47 | FSTIGCKSMAVNCSFWYWSR | 6.196 ± 0.047
48 | KFMLWPNIWMN | 0.916 ± 0.54
49 | EGVHNSRKVEPGVKFGSGAR | 0.621 ± 1
50 | KIKVPRIVLVCKCILFNNLW | 1.51 ± 0.34
51 | KKMIFTVVVECSKLWPLRVV | 0.399 ± 0.69
52 | DEWLDPEASERRRGPGDWAL | 0.55 ± 0.74

Row | Substance | amyloid nucleation score
53 | LGFSVCSRLVFIWEYASFGK | 0.459 ± 0.46
54 | IYFVIDCN | 0.835 ± 0.56
55 | WYENMFN | 3.15 ± 0.14
56 | INSNWASLRDRYARIASRSS | -0.372 ± 0.47
57 | CLYVTPYMLFYLLVSNGTEC | -1 ± 0.35
58 | LDLSNDGRFYKGREGAISCR | 0.049 ± 0.31
59 | RVPAFRY | inactive
60 | NCDLECQSLRAYGLSCKKSR | -0.22 ± 0.43
61 | MCMSRP | -1.05 ± 0.9
62 | GIMSRDGKICMVSV | -0.091 ± 0.81
63 | FLHHFQCKNTSN | inactive
64 | VWVKSHLY | -0.537 ± 0.25
65 | WIKLRLGFKRSFIPECGFLG | -0.208 ± 0.54
66 | FRDMYCARNIACSFLLVVAC | 1.1 ± 0.19
67 | ISTRQMFVYLRVHCFIDAVE | 0.043 ± 0.48
68 | SSLWTFTHRSKVGRYDFMAV | -1.51 ± 1.1
69 | WKYIMHLSRFYVFPCSTERG | 0.112 ± 0.87
70 | TPCNVLGNSGPVWSWNP | 0.166 ± 0.81
71 | NRLWSIRK | -0.425 ± 0.34
72 | IWLDCIGRYSGVYRHVINDV | -0.863 ± 0.37
73 | MQFNVSWRNGWSRWIGVSDV | 6.519 ± 0.054
74 | CFCVD | 1.01 ± 0.19
75 | CWVETLTICACLTFTFFFWN | 2.48 ± 0.14
76 | HNTSLYVTLNSSTR | 6.2 ± 0.09
77 | SNHQLEYRL | 1.52 ± 0.55
78 | YNLDDILPLHIEGRFNRDIA | inactive

Row | Substance | amyloid nucleation score
79 | SKCRL | 1.92 ± 0.62
80 | WIGGVKG | -0.427 ± 0.72
81 | NTHKLSGLI | 0.149 ± 0.41
82 | LSSTDFLGSDVDCFGNCNFL | 3.48 ± 0.13
83 | CLVIRFILHLSCK | 0.587 ± 0.54
84 | VLGDLVRFRAYASRAIMLSL | -0.11 ± 0.79
85 | VSIGILLFILPSRTGCVCLM | 0.087 ± 0.66
86 | LTGGLMV | -0.06 ± 0.34
87 | VRSPNIEYDFCRVLPTLTGE | 0.505 ± 1.4
88 | YNGLGIEETNWAARGS | -1.12 ± 1.1
89 | HPMKCFQANQFINIYRNDVA | 7.136 ± 0.059
90 | THYYCVLTGKITRRVLYILL | -1.13 ± 0.67
91 | NFPVPLRNDLKLAFMQNLNS | -0.531 ± 0.3
92 | CLNGGNFYRSLTRAKTNKNF | -0.258 ± 1.1
93 | AYKGMSLPDRIFKWLVWWHN | 0.008 ± 0.53
94 | SPYGALFLDQLFYYQGADRG | 1.05 ± 0.84
95 | TSIRRRLVRFFFNILPVVGL | 1.67 ± 0.17
96 | HSLGTCRFFVIAHSLK | 0.583 ± 0.69
97 | NLSCAE | -0.288 ± 0.71
98 | ILPEPGMLFDIILNLHAKKF | 2.65 ± 0.11
99 | GLLIVGRRYLGGADVDIHEE | 0.713 ± 0.68
100 | SVKTLLVRGILSLSIGFYMS | 0.294 ± 0.52
101 | NTVQNSMG | inactive
102 | LRCTCVECQWKRCESTLGGG | -1.02 ± 2.7
103 | IRMVMGTNKFDHVKSRDN | inactive
104 | PGVNKVHLYKESIIYLLAVS | inactive

Row | Substance | amyloid nucleation score
105 | GRTHEEYF | 0.048 ± 1.2
106 | RLYFRELSWSGLCMFELVRI | -0.117 ± 0.4
107 | FKYRVGDTSCMVCNVWYGGD | 7.552 ± 0.057
108 | VYVDSCCHMF | 7.508 ± 0.069
109 | VFNMTYRKIRVTE | inactive
110 | LKFSVFVKASPCTIRRS | -0.218 ± 0.5
111 | YSRWER | -0.565 ± 0.39
112 | FKSGRDSGMRG | -1.57 ± 1.1
113 | MHITDGCGG | -0.456 ± 0.3
114 | IIFGRGFFSHSGVRTNQCYT | -1.43 ± 1
115 | KMMPWVLLGRKLRLWRLCTK | -0.463 ± 0.56
116 | NARVILCVVFILGAMTRLGL | -0.549 ± 0.65
117 | ELMCFQQFKWKAMTYKWNGI | 0.337 ± 0.54
118 | RNLCTWVNRKELLSSEYLLF | -0.249 ± 0.31
119 | NFRGFLVTDPLSSS | -0.842 ± 0.42
120 | RRQYFN | -0.855 ± 0.45
121 | FTSPLKNHHLFGFAS | -0.345 ± 0.6
122 | VFNRFCYSSFCLTYRDYDSQ | 8.198 ± 0.07
123 | FFESEVSDKNFGSC | -1.29 ± 2.4
124 | STSIDVWRSALLRVFGFTIY | 0.171 ± 0.37
125 | QDRHYRNAKGSNSCYIRRKS | 1 ± 0.35
126 | INNIVK | 0.602 ± 0.29
127 | HVTKMNCPLCQVKLGNYPVY | -0.546 ± 0.49
128 | RRRLPGSSPISLGYFSSSLA | -0.509 ± 1.7
